According to PMC5523967, “Dimerized Domain V of Beta2-Glycoprotein I Is Sufficient to Upregulate Procoagulant Activity in PMA-Treated U937 Monocytes and Require Intact Residues in Two Phospholipid-Binding Loops” (Antibodies, 2017):
Substitutions are numbered along the chain they refer to.

Tests used:
Experiment in all cases: ITC; A1 (500 μM) in the injection syringe titrated in 2 μL increments into HA-DV or HA-DV variant (50 μM) in the sample cell; 298 K; 25 mM Hepes pH 7.1, 50 mM NaCl, 2 mM CaCl2; one site binding model
Settings in all cases: both partners purified
[1] = target: T1, HA-DV Lys308/Arg (human, UniProt P02749 263-345, Lys308/Arg)
T1 construct: beta2-glycoprotein I (β2GPI), human, domain V, residues 244-326, Lys308 to Arg; Point mutant of m2; also called Lys308/Arg variant of HA-DV; source: expressed from a pET15b vector and purified as previously described [34]; not shown: HA, N-terminal, kept
T1 sequence (looked up): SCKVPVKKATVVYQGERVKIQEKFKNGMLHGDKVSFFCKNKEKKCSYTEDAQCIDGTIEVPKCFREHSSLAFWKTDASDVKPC

[2] = target: T2, HA-tagged domain V of human β2GPI (HA-DV), wild type (human, UniProt P02749 263-345)
T2 construct: beta2-glycoprotein I (β2GPI), human, domain V, residues 244-326; also called wild type HA-DV; β2GPI-DV; source: expressed from a pET15b vector and purified as previously described [34]; not shown: HA, N-terminal, kept
T2 sequence (looked up): T1 sequence (looked up) with R65K

[3] = target: T3, HA-DV Leu313/Asp_Phe315/Ser (human, UniProt P02749 263-345, Leu313/Asp | Phe315/Ser)
T3 construct: beta2-glycoprotein I (β2GPI), human, domain V, residues 244-326, Leu313 to Asp and Phe315 to Ser; Double mutant of m2; source: expressed from a pET15b vector and purified as previously described [34]; not shown: HA, N-terminal, kept
T3 sequence (looked up): T1 sequence (looked up) with R65K, L70D, F72S

[4] = target: T4, HA-DV Lys282/Arg (human, UniProt P02749 263-345, Lys282/Arg)
T4 construct: beta2-glycoprotein I (β2GPI), human, domain V, residues 244-326, Lys282 to Arg; Point mutant of m2; also called Lys282/Arg variant of HA-DV; source: expressed from a pET15b vector and purified as previously described [34]; not shown: HA, N-terminal, kept
T4 sequence (looked up): T1 sequence (looked up) with K39R, R65K

[5] = target: T5, HA-DV Leu313/Asn (human, UniProt P02749 263-345, Leu313/Asn)
T5 construct: beta2-glycoprotein I (β2GPI), human, domain V, residues 244-326, Leu313 to Asn; Point mutant of m2; also called Leu313/Asn variant of HA-DV; source: expressed from a pET15b vector and purified as previously described [34]; not shown: HA, N-terminal, kept
T5 sequence (looked up): T1 sequence (looked up) with R65K, L70N

Measured: binding result

B1: A1, fragment of mouse ApoER2 (residues 12-47) in which Asp is substituted for Asn36 (domain or fragment)
chain: not shown
notes: source: Escherichia coli, purified as previously described [64]
binds: all assays above
